A word on the Km: it is the concentration of substrate that gives half-maximal velocity. As a reminder, the kcat is the number of substrate molecules converted per active site and unit of time at saturation. Usually kcat/Km stands for the second-order rate constant that governs catalysis at low substrate concentration.

Substrate in data set [1]: C[C@@H](O)[C@H]1C(=O)N2C(C(=O)O)=C(S[C@@H]3CN[C@H](CNS(N)(=O)=O)C3)[C@H](C)[C@H]12
Kind of data set: (§1) Activity of Escherichia coli CTX-M-15.

Substrate in data set [2]: C[C@@H](O)[C@H]1C(=O)N2C(C(=O)O)=C(S[C@@H]3CN[C@H](C(=O)N(C)C)C3)[C@H](C)[C@H]12
Described as §1.

Substrate in data set [3]: C[C@@H](O)[C@H]1C(=O)N2C(C(=O)O)=C(SCCNC=N)C[C@H]12
The description is as §1.

Substrate in data set [4]: C[C@@H](O)[C@H]1C(=O)N2C(C(=O)O)=C(S[C@@H]3CN[C@H](CNS(N)(=O)=O)C3)[C@H](C)[C@H]12
The conditions noted are these: Escherichia coli.

Substrate in data set [5]: C[C@@H](O)[C@H]1C(=O)N2C(C(=O)O)=C(S[C@@H]3CN[C@H](C(=O)N(C)C)C3)[C@H](C)[C@H]12
Particulars: Escherichia coli.

Substrate in data set [6]: C[C@@H](O)[C@H]1C(=O)N2C(C(=O)O)=C(SCCNC=N)C[C@H]12
Particulars: Escherichia coli.

Substrate in data set [7]: C[C@@H](O)[C@H]1C(=O)N2C(C(=O)O)=C(S[C@@H]3CN[C@H](CNS(N)(=O)=O)C3)[C@H](C)[C@H]12
Kind of data set: (§2) Kcat/Km ratio of Serratia marcescens SME-3.

Substrate in data set [8]: C[C@@H](O)[C@H]1C(=O)N2C(C(=O)O)=C(S[C@@H]3CN[C@H](C(=O)N(C)C)C3)[C@H](C)[C@H]12
The data set is described as §2.

Substrate in data set [9]: C[C@@H](O)[C@H]1C(=O)N2C(C(=O)O)=C(SCCNC=N)C[C@H]12
The data set is described as §2.

Substrate in data set [10]: C[C@@H](O)[C@H]1C(=O)N2C(C(=O)O)=C(S[C@@H]3CN[C@H](CNS(N)(=O)=O)C3)[C@H](C)[C@H]12
Kind of data set: (§3) Activity of Serratia marcescens SME-3.

Substrate in data set [11]: C[C@@H](O)[C@H]1C(=O)N2C(C(=O)O)=C(S[C@@H]3CN[C@H](C(=O)N(C)C)C3)[C@H](C)[C@H]12
Described as §3.

Substrate in data set [12]: C[C@@H](O)[C@H]1C(=O)N2C(C(=O)O)=C(SCCNC=N)C[C@H]12
The data set is described as §3.

Substrate in data set [13]: CC(C)(O/N=C(\C(=O)N[C@@H]1C(=O)N2C(C(=O)[O-])=C(C[n+]3ccccc3)CS[C@H]12)c1csc(N)n1)C(=O)O
Kind of data set: (§4) Activity of Klebsiella pneumoniae KPC-2.

Substrate in data set [14]: CC1(C)S[C@@H]2[C@H](NC(=O)Cc3ccccc3)C(=O)N2[C@H]1C(=O)O
The data set is described as §4.

Substrate in data set [15]: C[C@@H](O)[C@H]1C(=O)N2C(C(=O)O)=C(S[C@@H]3CN[C@H](CNS(N)(=O)=O)C3)[C@H](C)[C@H]12
Described as §4.

Substrate in data set [16]: C[C@@H](O)[C@H]1C(=O)N2C(C(=O)O)=C(S[C@@H]3CN[C@H](C(=O)N(C)C)C3)[C@H](C)[C@H]12
Described as §4.

Substrate in data set [17]: O=C(Cc1cccs1)N[C@@H]1C(=O)N2C(C(=O)[O-])=C(C[n+]3ccccc3)CS[C@H]12
The data set is described as §4.

Substrate in data set [18]: C[C@@H](O)[C@H]1C(=O)N2C(C(=O)O)=C(SCCNC=N)C[C@H]12
The description is as §4.

Substrate in data set [19]: CC(C)(O/N=C(\C(=O)N[C@@H]1C(=O)N2C(C(=O)[O-])=C(C[n+]3ccccc3)CS[C@H]12)c1csc(N)n1)C(=O)O
Kind of data set: (§5) Kcat/Km ratio of Klebsiella pneumoniae KPC-2.

Substrate in data set [20]: CC1(C)S[C@@H]2[C@H](NC(=O)Cc3ccccc3)C(=O)N2[C@H]1C(=O)O
The description is as §5.

Substrate in data set [21]: C[C@@H](O)[C@H]1C(=O)N2C(C(=O)O)=C(S[C@@H]3CN[C@H](CNS(N)(=O)=O)C3)[C@H](C)[C@H]12
Described as §5.

Substrate in data set [22]: C[C@@H](O)[C@H]1C(=O)N2C(C(=O)O)=C(S[C@@H]3CN[C@H](C(=O)N(C)C)C3)[C@H](C)[C@H]12
The description is as §5.

Substrate in data set [23]: O=C(Cc1cccs1)N[C@@H]1C(=O)N2C(C(=O)[O-])=C(C[n+]3ccccc3)CS[C@H]12
Described as §5.

Substrate in data set [24]: C[C@@H](O)[C@H]1C(=O)N2C(C(=O)O)=C(SCCNC=N)C[C@H]12
The data set is described as §5.

B1: Beta-lactamase CTX-M (Escherichia coli), Q9EXV5 (protein)
chain: MVKKSLRQFTLMATATVTLLLGSVPLYAQTADVQQKLAELERQSGGRLGVALINTADNSQILYRADERFAMCSTSKVMAAAAVLKKSESEPNLLNQRVEIKKSDLVNYNPIAEKHVNGTMSLAELSAAALQYSDNVAMNKLIAHVGGPASVTAFARQLGDETFRLDRTEPTLNTAIPGDPRDTTSPRAMAQTLRNLTLGKALGDSQRAQLVTWMKGNTTGAASIQAGLPASWVVGDKTGSGGYGTTNDIAVIWPKDRAPLILVTYFTQPQPKAESRRDVLASAAKIVTDGL
Turning to B1, the Km amounted to 7.1 µM in data set [1], 11 µM in data set [2] and 120 µM in data set [3]. For the same protein, the kcat in data set [1] stood at 0.0018 s⁻¹; in [2] it was 0.0042 s⁻¹; in data set [3], 0.17 s⁻¹. Also, the kcat/Km in [4] worked out at 250 M⁻¹ s⁻¹; in [5], 380 M⁻¹ s⁻¹; in data set [6], 1400 M⁻¹ s⁻¹.

B2: Carbapenem-hydrolyzing beta-lactamase SME-3 (Serratia marcescens), Q6PRG8 (protein)
chain: MSNKVNFKTASFLFSVCLALSAFNAHANKSDAAAKQIKKLEEDFDGRIGVFAIDTGSGNTFGYRSDERFPLCSSFKGFLAAAVLERVQQKKLDINQKVKYESRDLEYYSPITTKYKGSGMTLGDMASAALQYSDNGATNIIMERFLGGPEGMTKFMRSIGDNEFRLDRWELELNTAIPGDKRDTSTPKAVANSLNKLALGNVLNAKVKAIYQNWLKGNTTGDARIRASVPADWVVGDKTGSCGAYGTANDYAVIWPKNRAPLIVSIYTTRKSKDDKHSDKTIAEASRIAIQAID
For B2, the kcat/Km was found to be 300000 M⁻¹ s⁻¹ in [7], 550000 M⁻¹ s⁻¹ in data set [8] and 2.5e+06 M⁻¹ s⁻¹ in data set [9]. The Km in data set [10] was 8.2 µM; in data set [11], 5.8 µM; in [12] it was 150 µM. Further, the figures for the kcat in data set [10], in data set [11] and in data set [12] were 2.5 s⁻¹, 3.2 s⁻¹ and 370 s⁻¹, respectively.

B3: Carbapenem-hydrolyzing beta-lactamase KPC (Klebsiella pneumoniae), Q9F663 (protein)
chain: MSLYRRLVLLSCLSWPLAGFSATALTNLVAEPFAKLEQDFGGSIGVYAMDTGSGATVSYRAEERFPLCSSFKGFLAAAVLARSQQQAGLLDTPIRYGKNALVPWSPISEKYLTTGMTVAELSAAAVQYSDNAAANLLLKELGGPAGLTAFMRSIGDTTFRLDRWELELNSAIPGDARDTSSPRAVTESLQKLTLGSALAAPQRQQFVDWLKGNTTGNHRIRAAVPADWAVGDKTGTCGVYGTANDYAVVWPTGRAPIVLAVYTRAPNKDDKHSEAVIAAAARLALEGLGVNGQ
Turning to B3, the Km amounted to 230 µM in data set [13]; 30 µM in data set [14]; 1.6 µM in [15]; 13 µM in data set [16]; 510 µM in data set [17]; 90 µM in data set [18]. Moreover, the kcat in data set [13] came to 0.38 s⁻¹; in [14] it was 60 s⁻¹; in [15], 0.55 s⁻¹; in [16] it was 3.6 s⁻¹; in data set [17] it was 390 s⁻¹; in [18], 31 s⁻¹. In addition, the kcat/Km is 1700 M⁻¹ s⁻¹ in data set [19]; 2e+06 M⁻¹ s⁻¹ in data set [20]; 340000 M⁻¹ s⁻¹ in [21]; 280000 M⁻¹ s⁻¹ in data set [22]; 760000 M⁻¹ s⁻¹ in data set [23]; 340000 M⁻¹ s⁻¹ in [24].

(Values after ChEMBL document CHEMBL1212772.)
